Measured values taken from paper PMC11278340.

T1: murine CCL22 (Mus musculus, UniProt O88430 25-92)
T1 sequence: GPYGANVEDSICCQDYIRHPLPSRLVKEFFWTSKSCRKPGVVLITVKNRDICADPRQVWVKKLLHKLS

T2: human CCL22 (Homo sapiens, UniProt O00626 25-93)
T2 sequence: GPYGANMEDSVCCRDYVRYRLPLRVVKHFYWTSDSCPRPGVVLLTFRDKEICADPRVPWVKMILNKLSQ

T3: murine CCL17 (Mus musculus, UniProt Q9WUZ6 24-93)
T3 sequence: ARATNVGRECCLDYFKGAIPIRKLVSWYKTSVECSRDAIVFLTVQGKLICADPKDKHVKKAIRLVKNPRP


Key:
murine CCL22 [1] = target: T1, murine CCL22; experiment: flow cytometry on CCL22 beads
human CCL22 = target: T2, human CCL22; experiment: ELONA
murine CCL17 = target: T3, murine CCL17; experiment: ELONA
human CCL17 = human CCL17 (Homo sapiens, UniProt Q92583 24-94); experiment: ELONA
Chain of human CCL17 (Q92583 24-94): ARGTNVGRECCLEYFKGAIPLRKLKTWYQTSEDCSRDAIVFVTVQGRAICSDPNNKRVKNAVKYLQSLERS

murine CCL22 [2] = target: T1, murine CCL22; experiment: SPR

Binder | Kd (murine CCL22 [1]) [nM] | binding result (human CCL22) | binding result (murine CCL17) | binding result (human CCL17) | Kd (murine CCL22 [2]) [nM]
TAGGCGAGTGTGGGTGGGTGGGCGTTCTC (ssDNA) [AJ102.29] | 63.6 | – | – | – | –
AJ82 (ssDNA) DNA: GCTGTGTGACTCCTGCAAGCTGTGGAGTCGTCGTTCGGGTTATGGGGGATGGGGTTGAGTGGCAGCTGTATCTTGTCTCC | 146 | no binding | no binding | no binding | 24.8
AJ102 (ssDNA) DNA: GCTGTGTGACTCCTGCAATAGGCGAGTGTGGGTGGGTGGGCGTTCTCAGTGGTTCTCAGTAGCAGCTGTATCTTGTCTCC | 147 | no binding | no binding | no binding | 10.7
